Measured values as given in patent US20140348865A1, “[…] ON AN HIV-1 V1V2 SITE-OF-VULNERABILITY” (The United States of America, as represented by the …, priority 2011, published 2014).
“And” between values parts separate entries of the source, which are not always exact repeats. Equal entries are not always repeated.

Assays:
Linked-Dimer ZM109 = test: SPR
Linked-Dimer A244 = test: SPR, sensorgram box labelled Flowcell 2: PG9 Fab
[1] = target: gp120 of HIV-1 strain 16055, full length (HIV-1); test: SPR, gp120 amine-coupled, Fab injected
[2] = target: gp120 of HIV-1 strain AD244, full length (HIV-1); test: SPR, gp120 amine-coupled, Fab injected
[3] = target: V3 loop-deleted gp120 of HIV-1 strain AD244 (HIV-1); test: SPR, gp120 amine-coupled, Fab injected
[4] = target: V3 loop-deleted gp120 of HIV-1 strain 16055 (HIV-1); test: SPR, gp120 amine-coupled, Fab injected
[5] = target: linked dimer of the gp120 V1/V2 domain with truncated V1 and V2 variable loops
1JO8-ZM109 V1V2 scaffold [6] = test: SPR, scaffold immobilized, PG9 Fab injected
1FD6-ZM109 V1V2 scaffold [7] = test: SPR, scaffold immobilized, PG9 Fab injected
1FD6-ZM109 V1V2 scaffold [8] = target: 1FD6-ZM109 V1V2 scaffold
1JO8-ZM109 V1V2 scaffold [9] = test: SPR, antigen amine-coupled, Fab injected, 1:1 Langmuir
[10] = target: gp120 of HIV-1 strain ZM109 (HIV-1); test: as above
[11] = target: ZM109 154-177 glycopeptide with Man5GlcNAc2 at N160 and a complex glycan at N173; test: SPR, Fab injected over biotinylated glycopeptide on a streptavidin chip
[12] = target: CAP45 154-177 glycopeptide with Man5GlcNAc2 at N160 only; test: as above
[13] = target: Cap45 154-177 glycopeptide with Man5GlcNAc2 at N156 and Man5GlcNAc2 at N160; test: as above
[14] = target: ZM109 154-177 glycopeptide with Man5GlcNAc2 at N160 and Man5GlcNAc2 at N173; test: as above
[15] = target: CAP45 154-177 glycopeptide with Man5GlcNAc2 at N160 and a complex glycan at N156; test: as above
[16] = target: ZM109 154-177 glycopeptide with Man5GlcNAc2 at N160 only; test: as above
Linked-Dimer Cap45 = test: SPR, sensorgram box labelled PG9 Fab
monomeric gp120 = test: FIG. 11; method not given
[17] = target: V3 loop-deleted gp120 of HIV-1 strain 16055 (HIV-1); test: SPR, heterogeneous ligand model, component 1, 46.9%
[18] = target: gp120 of HIV-1 strain 16055, full length (HIV-1); test: SPR, heterogeneous ligand model, component 1, 66.0%
[19] = target: V3 loop-deleted gp120 of HIV-1 strain AD244 (HIV-1); test: SPR, heterogeneous ligand model, component 2, 15.5%
[20] = target: V3 loop-deleted gp120 of HIV-1 strain 16055 (HIV-1); test: SPR, heterogeneous ligand model, component 2, 53.1%
[21] = target: V3 loop-deleted gp120 of HIV-1 strain AD244 (HIV-1); test: SPR, heterogeneous ligand model, component 1, 84.5%
[22] = target: gp120 of HIV-1 strain 16055, full length (HIV-1); test: SPR, heterogeneous ligand model, component 2, 34.0%

## PG9 Fab
Linked-Dimer ZM109
  Kd: 1610 nM
Linked-Dimer A244
  Kd: 1800 nM
[1]
  Kd: 49 nM
[2]
  Kd: 44 nM
[3]
  Kd: 102 nM
[4]
  Kd: 70.9 nM
[5]
  Kd: 1700 nM
1JO8-ZM109 V1V2 scaffold [6]
  fold lower affinity than for wild-type ZM109 gp120: 3 fold
1FD6-ZM109 V1V2 scaffold [7]
  fold lower affinity than for wild-type ZM109 gp120: 50 fold
1FD6-ZM109 V1V2 scaffold [8]
  Kd: 3980 nM and 5670 nM
1JO8-ZM109 V1V2 scaffold [9]
  Kd: 318 nM
  koff: 0.00253 s⁻¹
  kon: 7960 M⁻¹ s⁻¹
[10]
  Kd: 96.8 nM
  koff: 0.00285 s⁻¹
  kon: 29500 M⁻¹ s⁻¹
[11]
  Kd: 5000 nM
[12]
  Kd: 50000 nM
[13]
  Kd: 45000 nM
[14]
  Kd: 97000 nM
[15]
  Kd: 5700 nM
[16]
  Kd: 97000 nM
Linked-Dimer Cap45
  Kd: 590 nM

## Hypersulfated PG9 Fab (co-expressed with TPST-1)
Monomeric gp120
  fold increase of affinity by sulfation: 10 fold

## PG16 Fab
[2]
  Kd: 4920 nM
[17]
  Kd: 2070 nM
[18]
  Kd: 370 nM
[19]
  Kd: 42.3 nM
[20]
  Kd: 6130 nM
[21]
  Kd: 3370 nM
[22]
  Kd: 399 nM
[11]
  Kd: 20000 nM
[15]
  Kd: 32000 nM
